Reference: the supplement of paper PMC11865577

These sequences were tested on TO-N3-2 (biotin conjugate) (assay: pull-down binding Z-score (relative to library population); higher = stronger binding). Conditions: RNA library: Library-2.
In short: (§1)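 Binding is given as a Z-score against the library mean and standard deviation, calculated after removing the beads-only signal and averaging barcoded replicate probes without their highest and lowest values. Cy5- or Cy3-end-labelled RNA library (1 μg) was heat-folded in phosphate/NaCl/KCl buffer and incubated 60 min at 25 °C with streptavidin beads bearing 100 pmol of biotin-conjugated small molecule. After three washes, RNA eluted in hot SDS was hybridised to a DNA barcode microarray for 20 h at 55.5 °C.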

Going from “ACACACACCAGACUAUGGAAGCCAGUGU [hsa-mir-147a]” to “ACACCUGUAAAGAAUUGGUCAGCCUGGGGACUGGUGAUCUCUGCAGCUGU [hsa-mir-4265]”, the “pull-down binding Z-score” value rises from 0.0135 to 1.42.

Compared with “ACACUGCGCUGCCCCAGACCCACUGU [hsa-mir-210]”, “ACACUGGGCUGCCCCCACUGCCCAGUGC [hsa-mir-4277]” is lower in “pull-down binding Z-score” value: 0.683 for the first, 0.413 for the second.

Going from “ACACUUCCUAUAUGUAUCCACAUAUAUAUAGU [hsa-mir-568]” to “ACAGAGUGAGAUGGUCUUGUUUUGU [hsa-mir-5684]”, the “pull-down binding Z-score” value rises from -0.936 to -0.546.

First: ACAGCAGUCUUACUGAAGGUUUCCUGGAAACCACGCACAUGCUGU [hsa-mir-744]
Second: ACAGCCAGUGCUCUCGUCUCCCCUCUGGCUGC [hsa-mir-192]
The “pull-down binding Z-score” value of the first is lower: -0.5 for the first, 0.949 for the second.

Compared with “ACAGCGCCACGGAAGAGGACGCA [hsa-mir-941-4_941-5_941-2_941-3_941-1]”, “ACAGGUAGUGGCCACAGUGAGAAAGCUGGCCUGUCCUUCUGC [hsa-mir-4314]” is lower in “pull-down binding Z-score” value: 0.874 for the first, 0.681 for the second.

Going from ACAGUGGACUUGGUGACGCUGU [hsa-mir-675] to “ACAGUGGCCACAUCUCCAC [hsa-mir-1184-3_1184-2_1184-1]”, the “pull-down binding Z-score” value rises from -0.259 to 0.582.

Compared with “ACAGUUUGAGGGUCUAUGAUACCACCCGGUACAGGAGAUAACUGU [hsa-let-7g]”, “ACAUGAAAAUAAAAUGUAAAUUAUUUUAUUUCUAUCA [hsa-mir-3671]” is lower in “pull-down binding Z-score” value: 0.988 for the first, -0.163 for the second.

Going from ACAUGCAGUAUUUGG [hsa-mir-1302-8] to “ACAUUUGCAACCUGUGAAGAUGCAAAACUUUAAGUGU [hsa-mir-2053]”, the “pull-down binding Z-score” value falls from -0.0326 to -0.701.

Compared with ACCAAAAAUGAUAUGGGU [hsa-mir-7977], ACCAAAACACUCAUCGCGG [hsa-mir-1260a] is higher in “pull-down binding Z-score” value: -0.381 for the first, -0.00378 for the second.

With “ACCACCCAGGCCUUAUGGCUUCAUA [hsa-mir-7974]” the “pull-down binding Z-score” value was 0.0927.

The sequences below were run on TO-3-N3-2 (biotin conjugate) in the same assay as above. Conditions: RNA library: Library-2.
In short: as §1

First: AAAUAAAAGAUGGAGUCGUUUGACGUCUUUUAACACCCUUU [hsa-mir-8055]
Second: AAAUAAGAGGCUAGGAUUGCCUCUUAUUU [hsa-mir-3201]
The “pull-down binding Z-score” value of the first is higher: -0.1 for the first, -0.362 for the second.

Going from “AAAUAAGCUCCAUAUCAAUGAGAAUUUCAAUGGGAUUAUGUG [hsa-mir-4791]” to AAAUAGUUUCUAUCAAAAUAGUUU [hsa-mir-3668], the “pull-down binding Z-score” value falls from -0.0328 to -0.362.

Going from “AAAUCCCGUUAAUAAGUAAGAGGAUUU [hsa-mir-2113]” to “AAAUCCGUGUUUGGACGCUUCUGGUA [hsa-mir-3936]”, the “pull-down binding Z-score” value rises from 0.143 to 0.653.

First: AAAUGAGAGUUAGCCAGGAGCUUUGCAUACUCA [hsa-mir-6801]
Second: AAAUUGCAGACACUAGGACCAUGUCUUGGUUUUUGCAAUAAUG [hsa-mir-1248]
The “pull-down binding Z-score” value of the first is higher: -0.0024 for the first, -0.133 for the second.

First: AACAACAGCAUCAGAAGCAACAUCAGCUUUAGUU [hsa-mir-569]
Second: AACACCCAUCCCAGGAUUGCUGAUGGGUGUU [hsa-mir-5705]
The “pull-down binding Z-score” value of the first is higher: 0.364 for the first, -0.428 for the second.

First: AACAGCAGGAUUGGCUGUAGCUGUU [hsa-mir-2117]
Second: AACAGCUUUGCGAAGUGUUGUU [hsa-mir-4425]
The “pull-down binding Z-score” value of the first is lower: -0.324 for the first, -0.137 for the second.

First: AACAGGACCUGUGCUCACUGGGGCCUGCA [hsa-mir-6797]
Second: AACAUACAUUUGUCUUGGUGUGUU [hsa-mir-4684]
The “pull-down binding Z-score” value of the first is higher: 0.298 for the first, -0.744 for the second.

Going from “AACGUUAUGUGUGGUCUUUAACCUGUU [hsa-mir-6755]” to AACUCCUGCGAGUCCCUGGAGUU [hsa-mir-1258], the “pull-down binding Z-score” value falls from 0.16 to -0.146.

Going from “AACUCUGUUGAAUAUAAAUUGGAAUU [hsa-mir-367]” to “AACUGUGCGGCCGGCCACACCGUCACACCGGGU [hsa-mir-8083]”, the “pull-down binding Z-score” value rises from 0.00577 to 0.611.

First: AAGACACUAUCUGACAACAACAGGGCUCUU [hsa-mir-550b-2]
Second: AAGACACUAUCUUACAACAACAGGGCUCUU [hsa-mir-550b-1]
The “pull-down binding Z-score” value of the first is lower: 0.201 for the first, 0.281 for the second.

Compared with “AAGAGGAGGUGGUUGUUUUCCUCCUCUU [hsa-mir-627]”, “AAGAGGUAAGAAGAAGUGAAGCCCUCUU [hsa-mir-4778]” is lower in “pull-down binding Z-score” value: 0.625 for the first, 0.35 for the second.

First: AAGCAGGGUCGGGCCUGGUU [hsa-mir-7641-2]
Second: AAGCAGGGUUGGGCCUGGUU [hsa-mir-7641-1]
The “pull-down binding Z-score” value of the first is higher: 0.0218 for the first, -0.112 for the second.

Compared with “AAGCCCUACGAGAAACUGGGGUUUCUGGA [hsa-mir-765]”, AAGCUCUUGCAGUAGGUUU [hsa-mir-1206] is lower in “pull-down binding Z-score” value: 0.277 for the first, -0.358 for the second.

Going from AAGCUGACAGACAGCUG [hsa-mir-5691] to AAGCUGUGUGUGUCCAGC [hsa-mir-4732], the “pull-down binding Z-score” value rises from -0.398 to -0.101.

Compared with AAGGCCAGGACCCGCUGACCCAU [hsa-mir-6872], “AAGGCCCUUGGGCACCCCAGGCCUU [hsa-mir-5700]” is lower in “pull-down binding Z-score” value: -0.0792 for the first, -0.081 for the second.

First: AAGGCGGGUGGUGCUCAGAUCGCCU [hsa-mir-326]
Second: AAGGGUGUAUGAGAGAUCAACCCUU [hsa-mir-5697]
The “pull-down binding Z-score” value of the first is higher: 0.00254 for the first, -0.0393 for the second.

First: AAGGUGGAGUUCUGGGUGCUGUUUUCCCACUCU [hsa-mir-378i]
Second: AAGUAAUUGUUUCUAAUGUACU [hsa-mir-412]
The “pull-down binding Z-score” value of the first is higher: 0.299 for the first, 0.0532 for the second.

First: AAGUAGUUGGCGUCUUCAGAGACACUU [hsa-mir-643]
Second: AAGUCCGGCUCCAGAACCUGGACACCGCUCAG [hsa-mir-4638]
The “pull-down binding Z-score” value of the first is lower: 0.0519 for the first, 0.379 for the second.

Compared with AAGUCGAUUUCCAAAAGUGACUU [hsa-mir-3124], AAGUGCCGUCCUCAUGAGCCCCU [hsa-mir-6769b] is higher in “pull-down binding Z-score” value: -0.588 for the first, 0.181 for the second.

Going from “AAGUGGAGCAGGAAUGCGCUUUUCUCCACUG [hsa-mir-5187]” to AAGUUCCCUCUGGCUGGAAC [hsa-mir-1249], the “pull-down binding Z-score” value falls from 0.27 to -0.021.

First: AAUAAAGUAUGUCCACAGCUGAAAGGACAUACUUUAUU [hsa-mir-4464]
Second: AAUCCCAGCACUUUGGGAG [hsa-mir-3929]
The “pull-down binding Z-score” value of the first is lower: -0.236 for the first, -0.0338 for the second.

Going from “AAUCCCUCUCUUUCUAGUUCUUCCUAGAGUGAGGAAAA [hsa-mir-320b-1]” to AAUGACUCAUAGUCAA [hsa-mir-4475], the “pull-down binding Z-score” value rises from -0.166 to -0.157.

Going from “AAUGCAGUCUGCACCCUGCUGCAUU [hsa-mir-6504]” to AAUGCAUAGAAAGCAUU [hsa-mir-4272], the “pull-down binding Z-score” value rises from -0.145 to 0.00602.

First: AAUGCUGUGUUUCUGUAUGGUAUU [hsa-mir-92a-1]
Second: AAUGUCAGGGCCACCCCUGACCUU [hsa-mir-6837]
The “pull-down binding Z-score” value of the first is higher: -0.22 for the first, -0.382 for the second.

First: AAUUGGCUUUUACAAAAGACCAACU [hsa-mir-4798]
Second: AAUUUUCUCUUGUCUAAAAGAAAAGAACG [hsa-mir-521-2]
The “pull-down binding Z-score” value of the first is lower: -0.259 for the first, -0.0994 for the second.

Going from “AAUUUUGAUGAGUAUCAUAGGAGAAAAAUU [hsa-mir-363]” to AAUUUUUUUUUAAUUUAAAAAAUU [hsa-mir-3938], the “pull-down binding Z-score” value falls from 0.27 to 0.127.

Going from “ACAAUAUGCUAUUAUAAUCGUAUGGCAUUGU [hsa-mir-2355]” to “ACAAUUAUGAAAGAAAAGAAAUUGU [hsa-mir-3611]”, the “pull-down binding Z-score” value rises from -0.546 to 0.327.

Compared with “ACACACACCAGACUAUGGAAGCCAGUGU [hsa-mir-147a]”, “ACACCUGUAAAGAAUUGGUCAGCCUGGGGACUGGUGAUCUCUGCAGCUGU [hsa-mir-4265]” is higher in “pull-down binding Z-score” value: -0.471 for the first, 0.475 for the second.

Going from “ACACUGCGCUGCCCCAGACCCACUGU [hsa-mir-210]” to “ACACUGGGCUGCCCCCACUGCCCAGUGC [hsa-mir-4277]”, the “pull-down binding Z-score” value falls from 0.103 to -0.357.

First: ACACUUCCUAUAUGUAUCCACAUAUAUAUAGU [hsa-mir-568]
Second: ACAGAGUGAGAUGGUCUUGUUUUGU [hsa-mir-5684]
The “pull-down binding Z-score” value of the first is higher: -0.0673 for the first, -0.409 for the second.

First: ACAGCAGUCUUACUGAAGGUUUCCUGGAAACCACGCACAUGCUGU [hsa-mir-744]
Second: ACAGCCAGUGCUCUCGUCUCCCCUCUGGCUGC [hsa-mir-192]
The “pull-down binding Z-score” value of the first is lower: -0.233 for the first, 0.236 for the second.

First: ACAGCGCCACGGAAGAGGACGCA [hsa-mir-941-4_941-5_941-2_941-3_941-1]
Second: ACAGGUAGUGGCCACAGUGAGAAAGCUGGCCUGUCCUUCUGC [hsa-mir-4314]
The “pull-down binding Z-score” value of the first is lower: -0.211 for the first, 0.0324 for the second.

First: ACAGUGGACUUGGUGACGCUGU [hsa-mir-675]
Second: ACAGUGGCCACAUCUCCAC [hsa-mir-1184-3_1184-2_1184-1]
The “pull-down binding Z-score” value of the first is lower: -0.252 for the first, 0.472 for the second.

Compared with “ACAGUUUGAGGGUCUAUGAUACCACCCGGUACAGGAGAUAACUGU [hsa-let-7g]”, “ACAUGAAAAUAAAAUGUAAAUUAUUUUAUUUCUAUCA [hsa-mir-3671]” is higher in “pull-down binding Z-score” value: -0.136 for the first, 0.294 for the second.

Compared with ACAUGCAGUAUUUGG [hsa-mir-1302-8], “ACAUUUGCAACCUGUGAAGAUGCAAAACUUUAAGUGU [hsa-mir-2053]” is lower in “pull-down binding Z-score” value: -0.047 for the first, -0.262 for the second.

Compared with ACCAAAAAUGAUAUGGGU [hsa-mir-7977], ACCAAAACACUCAUCGCGG [hsa-mir-1260a] is lower in “pull-down binding Z-score” value: 0.11 for the first, 0.105 for the second.

With “ACCACCCAGGCCUUAUGGCUUCAUA [hsa-mir-7974]” the “pull-down binding Z-score” value was -0.0756.
